The test concerns the target Suc1 protein coupled to CNBr-Sepharose beads (UniProt P08463). The experiment in a line: pull-down.

Results on one substance are retold here after paper PMC2199964.

Chain of Suc1 protein coupled to CNBr-Sepharose beads (P08463 whole entry): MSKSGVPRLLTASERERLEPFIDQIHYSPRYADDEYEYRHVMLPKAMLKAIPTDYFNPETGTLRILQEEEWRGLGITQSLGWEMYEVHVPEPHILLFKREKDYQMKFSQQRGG

In the case of “Xenopus cyclin E, endogenous in interphase egg extract (natural protein)”, the percent of the protein removed from the extract by Suc1 beads was greater than 90%.
